Assay results from a protein production outcome set (Wang et al. 2014).

Test: label from the status in PepcDB records

| Sequence | protein production |
| --- | --- |
| MAEAGDENLYAAARDIARALGKDPSAAGDILQILSGYGASGNRGGDPRPTPSRGGSNVNFDRALTSLERQISSYIVEDRPIWSDPVDSRTFLDSVDELLAIAGDLRSMAGDKSVAVCQSRADELIQQVMFRLQEEFGFVMDRAPDSFDSDDEFPGEEDNDTSDGVIVARPITDYKIVIEALQSSVIGDLNAIAVRMVAGGFAKECSRVYSSRRREFLEESLSRLHLRGLSMEEVQESPWQDLEDEIDRWIKAVTLIFHVFFPSERLLCDRVFSDLPVSSVTDLSFMEVCRGTTTQLLNFADAIALGSRLPERLFKVVDLYEAMQDLIPKMETLFSDRYCSPLRHEALAIHKRLGEAIRGIFMELENLIRRDPPKTAFPGGGIHPITRYVMNYLRAACKSRQSLEQILDQTGNETGSDTRPLSVQIIWVLELLESNLEGKKRTYRDPSLCFLFMMNNDKYILDKAKDNELGLVLGEDWIVKHAAKLRQYHSNYRRSSWNQVVGLLRTDGPYPKLVENLRLFKSQFDEVCKVQSQWVVSDGQLREELRSSVAGIVSPAYSNFIRRLKESPEINGRRGEPFIPYTVEDVEFIIKRLFKESSS | not failed |
| MAEARPDSLTRSRAAKPAGEGAAFSPLYRQIKELLVQSLDRGEWKPGELIPSEIDLAARFQVSQGTVRKAVDELAAEHLLLRRQGKGTFVATHHEARVRYRFLRLAPDEEGEGGRAESRILECRRLRAPAEIARALELRAGETVVTIRRQLSMNHMPTVIDDLWLPGTHFRGLTLELLTASKAPLYGLFESEFGVSMVRADEKLRAVAASPEIAPLLGVEPGRPLLQVDRISYTYGDRPMEVRRGLYLTDHYHYRNSLN | not failed |
| MAEASIQIEVVYATVQRQVLMTVDVPAGSSVRQALALCGMDREFPELDLSHCPVGIFGKVVADPAARVLEAGERIEIYRPLLADPMEIRRLRAAKAREKRTLPG | failed |
| MAEDKTKPSELDQGKYDADDNVKIICLGDSAVGKSKLMERFLMDGFQPQQLSTYALTLYKHTATVDGRTILVDFWDTAGQERFQSMHASYYHKAHACIMVFDVQRKVTYRNLSTWYTELREFRPEIPCIVVANKIDADINVTQKSFNFAKKFSLPLYFVSAADGTNVVKLFNDAIRLAVSYKQNSQDFMDEIFQELENFSLEQEEEDVPDQEQSSSIETPSEEAASPHS | not failed |
| MAEEAALNFADFYDAELALHNAHFRVTAAVGRSDRVLDVGCGAGQTTRDAARAAEAGRAHGIDLSATMLEIARRRSAEEGLPNATFELADAQNYHFAKGEFDLCISRFGVMFFADPAVAFANIANAVRPGGRFIFMVWQGRDHNEWATAIHEALDPDSTGPVAAGKAFSLSETSVTSGLLETAGFTAIEFREINEPVFYGPDPETALVTIQTFENVKNALDRPATTAEIRARLLDMLEAHQTPHGVQFDSRAWLITGGRYGDSPPCFIGDFRSA | failed |
| MAEEAKAKGNAAFSSGDFTTAINHFTEAIALAPTNHVLFSNRSAAHASLHQYAEALSDAKETIKLKPYWPKGYSRLGAAHLGLNQFELAVTAYKKGLDVDPTNEALKSGLADAEASVARSRAAPNPFGDAFQGPEMWTKLTSDPSTRGFLQQPDFVNMMQEIQKNPSSLNLYLKDQRVMQSLGVLLNVKFRPPPPQGDEAEVPESDMGQSSSNEPEVEKKREPEPEPEPEVTEEKEKKERKEKAKKEKELGNAAYKKKDFETAIQHYSTAIEIDDEDISYLTNRAAVYLEMGKYNECIEDCNKAVERGRELRSDYKMVARALTRKGTALTKMAKCSKDYEPAIEAFQKALTEHRNPDTLKRLNDAERAKKEWEQKQYFDPKLGDEEREKGNDFFKEQKYPEAIKHYTEAIKRNPNDHKAYSNRAASYTKLGAMPEGLKDAEKCIELDPTFSKGYSRKAAVQFFLKEYDNAMETYQAGLEHDPSNQELLDGVKRCVQQINKANRGDLTPEELKERQAKGMQDPEIQNILTDPVMRQVLSDLQENPSAAQKHMQNPMVMNKIQKLISAGIVQMK | failed |
| MAEHGETTEDGDSEIDYEFLAELSALLGVDAVQLAKSQEEEEHKERMKMKKGFNSQMRSEAKRLKTFETYDTFRSWTPQEMAAAGFYHTGVRLGVQCFCCSLILFGNSLRKLPIERHKKLRPECEFLLGKDVGNIGKYDIRVKRPEKMLRGGKARYHEEEARLESFEDWPFYAHGTSPRVLSAAGFVFTGKRDTVQCFSCGGSLGNWEEGDDPWKEHAKWFPKCEFLQSKISSEEIAQYIQGYGGFVHVTGEHFVNSWVRRELPMVSGRKDIVQCFSCGGCMENWAEGDDPIQEHNKFFPK | failed |
| MAEIDYKKVTGMIHSTESFGSVDGPGIRFIIFMQGCKMRCQYCHNPDTWEMETNNSKERTVEDVLKEALRYKHFWGKDGGITVSGGEAMLQIDFITALFIEAKKLGIHTTLDTCGFAYRATPEYHAILEKLLDVTDLVLLDLKEIDSEQHKIVTRQSNKNILQFARYLSDRGTPVWIRHVLVPGLTDIDDHLKRLGEFVQTLDNVDKFEVLPYHTMGEFKWRELGIPYPLAGVKPPTPERVKNAKDIMKTESYTEYLKRIQN | not failed |
| MAEIIDKTLNMLVTGQRARVIQIKGKGNSRKRLLEMGMVPGTVLSVTKKAPLGDPVDFKLKGYNLSLRKQEAEMIVVEPLEG | failed |
| MAEKKKKNKKQLSSFSILFIILIVLGIVTVLLNGQPFTPREIDGKMVDHVVGAKLSDIIMAPFNGFKDAIEINIFILVLGGFLNIVTQTGALEAGIQSVVKKLKGNELKIIPILMILFSIGGSTYGMAEETIPFYGLLSATMVAAGFDTFVAVGTVLLGAGSGVIGSTVNPFSTGVAMDALRGIGIQPNTGIILIVGAILWAASTSYSIFIVMRYAKKVKADKGSTILSLQEQEDMEKTYGQAASKEMPFTNRHKKILMVFAFCFVIMIVSLIPWNDFGVTIFKGWTSVLTGNSFGDWYFGDLAMWFFLLGIIAALIGRFTEKETIEAFIDGAKDMLSVVLIIVVARGASVLMSKTYLDSFILDKAAGLLQGLSPVLFVIGAFVLYLGLSFLIPSTSGLAYVSIPVMGALAKNIGLSPEVMVMIFASGCGLINLITPTSGVVMGGLEISKVQYATWTKFMAKPMIVLGLINLIILIGAMLLFS | failed |
| MAEKPKLHYFNARGRMESTRWLLAAAGVEFEEKFIKSAEDLDKLRNDGYLMFQQVPMVEIDGMKLVQTRAVLNYIASKYNLYGKDIKERALIDMYIEGIADLGEMILLLPVCPPEEKDAKLALIKEKIKNRYFPAFEKVLKSHGQDYLVGNKLSRADIHLVELLYYVEELDSSLISSFPLLKALKTRISNLPTVKKFLQPGSPRKPPMDEKSLEEARKIFRF | not failed |
| MAELEKTFALIKPDAVRAGKAQEIMQLIELNGFTIIAKQKLQLTRARAEEFYGEHKGKEFFPKLVNFMTSGPIWALVLAKPGAILAWRALMGPTNVFKARAEQPKCLRALYGTDGTQNATHGSDSPISAAREIKFFFPTLSGDPTIYAEPTAAAEYITKRIQPALAKALAALAREKPSADKFEAITFVAGYLLQNNPNKPKV | not failed |
| MAELKSLAKDTAIYGASSIIGKFLNYFLVPIYTFSLPAASGGYGVITKMYAIVALLLVVLTFGMETGFFRFANKGDDDPKKVYSVSLLMVGGVSLLFLLLCLVFLNPIAGLMGYSEHPWYLGMMLIVLAMDAIQAIPFAYLRYKKRPIKFAGLKLLFIFVSILLNILYFVVMKGDDVGVAFLINLICSFVVMLGLIPEFREFRYCPDRLLMKRMLYYSFPILILGVAGIVNQVGDKIIFPFVYPDKVEADVQLGIYSAATKIAMIMAMITQAFRFAYEPFVFGKSKDKDNKRIYAQAMKFFIIFTLLAFLAVMFYLDILRYIIAEDYWEGLRVVPIVMIAEMFMGIYFNLSFWYKLTDDTRWGAYFSIIACLTVVLMNIFLIPVYGYVACAWAGFTGYAIAMLLSYFVGQKKYPIAYDLRGIGCYVGLAIILYLIGEWIPIHNTVLLLAFRTVLLLLFIAYIIKRDLPLSQIPVINRIIKKK | not failed |
| MAELQMLLEEEIPGGRRALFDSYTNLERVADYCENNYIQSADKQRALEETKAYTTQSLASVAYLINTLANNVLQMLDIQASQLRRMESSINHISQTVDIHKEKVARREIGILTTNKNTSRTHKIIAPANLERPVRYIRKPIDYTILDDIGHGVKVSTQNMKMGGLPRTTPPTQKPPSPPMSGKGTLGRHSPYRTLEPVRPPVVPNDYVPSPTRNMAPSQQSPVRTASVNQRNRTYSSSGSSGGSHPSSRSSSRENSGSGSVGVPIAVPTPSPPSVFPGHPVQFYSMNRPASRHTPPTIGGSLPYRRPPSITSQTSLQNQMNGGPFYSQNPVSLAPPPPSILQVTPQLPLMGFVARVQENISDTPPPPPPVEEPVFDESPPPPPPPEDYEEEEAAVVEYSDPYAEEDPPWAPRSYLEKVVAIYDYTKDKEDELSFQEGAIIYVIKKNDDGWYEGVMNGVTGLFPGNYVESIMHYSE | not failed |
| MAEPGIDKLFGMVDSKYRLTVVVAKRAQQLLRHGFKNTVLEPEERPKMQTLEGLFDDPNAETWAMKELLTGRLVFGENLVPEDRLQKEMERIYPGEREE | not failed |
| MAEPRENLMDWLRDAHAMEQQAEQMLKAQAARIEHYPKLKARIEQHLEETLGQQRLVEASIERLGGSPSVVKDAMGKMAAFGQAMGGMTTSDEIVKGAMASYVFENLEIATYTALLGAAKTVGDVETQRMCEQILPQEEAMAKWLLEHLPELTEEFLVRDATPGVTAKK | failed |
| MAEPSQAPTPAPAAQPRPLQSPAPAPTPTPAPSPASAPIPTPTPAPAPAPAAAPAGSTGTGGPGVGSGGAGSGGDPARPGLSQQQRASQRKAQVRGLPRAKKLEKLGVFSACKANETCKCNGWKNPKPPTAPRMDLQQPAANLSELCRSCEHPLADHVSHLENVSEDEINRLLGMVVDVENLFMSVHKEEDTDTKQVYFYLFKLLRKCILQMTRPVVEGSLGSPPFEKPNIEQGVLNFVQYKFSHLAPRERQTMFELSKMFLLCLNYWKLETPAQFRQRSQAEDVATYKVNYTRWLCYCHVPQSCDSLPRYETTHVFGRSLLRSIFTVTRRQLLEKFRVEKDKLVPEKRTLILTHFPKFLSMLEEEIYGANSPIWESGFTMPPSEGTQLVPRPASVSAAVVPSTPIFSPSMGGGSNSSLSLDSAGAEPMPGEKRTLPENLTLEDAKRLRVMGDIPMELVNEVMLTITDPAAMLGPETSLLSANAARDETARLEERRGIIEFHVIGNSLTPKANRRVLLWLVGLQNVFSHQLPRMPKEYIARLVFDPKHKTLALIKDGRVIGGICFRMFPTQGFTEIVFCAVTSNEQVKGYGTHLMNHLKEYHIKHNILYFLTYADEYAIGYFKKQGFSKDIKVPKSRYLGYIKDYEGATLMECELNPRIPYTELSHIIKKQKEIIKKLIERKQAQIRKVYPGLSCFKEGVRQIPVESVPGIRETGWKPLGKEKGKELKDPDQLYTTLKNLLAQIKSHPSAWPFMEPVKKSEAPDYYEVIRFPIDLKTMTERLRSRYYVTRKLFVADLQRVIANCREYNPPDSEYCRCASALEKFFYFKLKEGGLIDK | failed |
| MAESIFRKLRDGGEEGELAPALTIEETVASPFGLDVSGYLLTNLSSSILAGKSSSQGLVLITFSRSPSFYLQLLKQKGIVVSSSSKWIRILDCYTDPLGWIDQSSTSFSEGSSLIKLHKCVSDLKKLFSSIIEAGRVRSLSKGLYEIKSDCFGAELVGTGKTRFCVAIDSKREVIIYLNFESAQISSVFWSLNTDLHQEKVTNALEYISTMKANLEPLCPSSDGQRNALENLFSVHQDFGKGRFHVRFKLRKGRVRVMSEEYHVDQSGINFSPISSVDTVIAATKSLLPKASYLDLLFNYLVQFNLQLSEKERVEKEKVVLPFEHQDDGKSNEIYDGRRSLVDGKIETTPLSSMELQTDVVSSGKGGEIIYFRDSDDEHPDSDEDPDDDLDI | not failed |
| MAESPRRETLIGGAVVLLGVALLAATSINRHDASGQAGAYQVEAVFNRTDGIGIGSPVRLAGIPIGRIVGHKLDPEYRAIVTMRLDLPNELPDDTAAKIQTDGLLGSKYIELVSLGGGYGTIAPGGRLDYSQDSVIVEDLLVKIVAMAKIKRGLDPDIPAAEQQKAKAASHPQAPPPGGAGDPGDPFGGGAVAPPEVNPFAPGPFEDDPPPPEPGVFSPDPGRDGVSEPPPAQDTRHDMRTNTLNDTAGTAPGAVTLASLPAVQADVEEGR | failed |
